Test results taken from the supplement of paper PMC10567573.

B1: PDLIM7 (parent)
chain: AAGGVPGGGSNNGKTPVCHQCHKV
B2: ANKRD40 (parent)
chain: SLRENDFIEIELDRQELTYQELLR

Variants of: B1
Experiment: protein stability index of a GFP-peptide fusion (GPS, HEK-293T) (PSI 1-6); higher = more stable
Details: c terminus: a fixed tail appended
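Note: lentivirally expressed fusions sorted by FACS into six bins by GFP to DsRed ratio, PSI derived from sequencing read proportions per bin multiplied by bin number.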

Protein stability index of substitutions, site by site:
G3: S 3.42 | I 2.02 | H 4.17 | N 3.14 | D 4.08 | T 3.3 | K 3.87 | F 3.31 | Y 3.54 | C 3.41
G9: W 2.98 | I 3.48 | Y 3.56 | V 2.59 | H 3.21 | K 3.64 | P 3.69 | C 2.13 | S 2.65 | D 4.5 | F 2.39 | T 2.79 | N 3.21 | Q 3.6 | E 4.04 | R 3.06 | L 3.19 | M 3.22
P6: N 3.46 | K 4.05 | I 2.57 | L 3.23 | R 3.73 | M 4.35 | F 2.85 | G 2.19 | V 3.04 | Q 3.42 | C 3.05 | Y 3.73 | W 1.96 | E 4.88
S10: N 3.32 | I 2.37 | D 3.96 | H 2.21 | P 2.9 | C 2.19 | L 2.47 | K 3.18 | F 2.02
G8: D 4.5 | K 3.52 | Q 3.87 | Y 2.96 | T 4.16 | M 3.46 | E 5.24 | R 3.31 | W 3.56 | V 3.53 | I 3.48 | H 3.3 | N 3.14 | C 3.12 | L 3.72 | P 3.8 | S 2.9 | F 2.43 | A 3.58
A1: P 3.33 | F 2.45 | M 3.5 | H 4.13 | D 4.34 | S 2.44 | R 2.36 | W 3.22 | V 3.93 | G 3.52 | E 4.24 | Y 1.95 | L 3.76 | N 3.03 | I 3.52 | T 2.73 | C 3.35 | K 3.36
A2: V 3.97 | Q 4.19 | P 2.15 | N 4.08 | F 3.86 | D 3.81 | C 2.73 | W 3.88 | T 3.08 | I 3.49 | E 4.76 | G 3.43 | L 3.53 | R 3.33 | Y 3.72 | S 3.84 | K 4.11 | H 3.63 | M 3.78
G7: R 3.89 | N 4.05 | L 3.47 | K 4.09 | V 3.53 | W 2.26 | P 3.4 | H 3.68 | E 4.47 | D 4.3 | T 3.56 | Y 3.4 | C 3.49 | S 3.95 | I 3.1 | F 2.9 | M 2.06 | Q 3.93

Variants of: B2
Experiment: as above
Details: c terminus: a fixed tail appended

Protein stability index, by site and new letter:
R24: M 2.52 | Y 2.43 | C 2.72 | T 3.06 | E 3.88 | N 3.49 | W 2.26 | H 2.77
T18: I 2.1 | D 3.71 | W 2.73 | H 3.2 | E 3.49 | Q 3.37 | R 3.29 | Y 2.59 | V 2.22 | L 2.49 | G 3.53 | F 1.85 | M 2.12 | N 3.5 | P 3.28 | A 3.06 | K 2.93
R3: A 3.29 | D 2.9 | G 3.26 | T 2.91 | I 2.9 | Q 2.95 | C 3.14 | V 2.44 | F 2.37 | P 3.52 | Y 2.65
L12: F 2.73 | G 4.4 | K 3.91 | Y 3.34
E16: T 2.76 | H 2.89 | F 2.5 | Y 2.15 | K 2.93 | W 2.55 | S 3.48 | N 3.5
D13: Q 2.93 | I 1.77 | W 1.81 | A 2.56 | F 1.99 | R 2.65 | H 2.22 | M 2.45 | L 2.04 | Y 1.87 | K 2.55 | V 1.78 | N 3.17
N5: H 2.62 | S 2.77 | A 2.57 | R 2.79 | P 3.34 | Q 2.96 | M 2.4
L2: M 3.09 | S 3.2 | E 2.93 | V 3.12 | P 3.49 | H 3.01 | R 2.8 | T 3
E4: N 2.92 | R 2.31 | G 2.57 | L 2.05 | T 2.7 | P 3.21 | H 2.84 | A 2.74 | Q 2.97 | K 2.16
E9: Y 2.12 | F 1.82 | A 2.58 | H 2.27 | W 1.57 | R 1.97 | S 2.73 | V 1.87 | I 1.63
Q20: P 2.95 | N 2.65 | G 3.15 | H 2.76 | M 2.3
E11: P 3.75 | W 1.98 | C 2.37 | G 3.26 | I 2.16
E21: L 1.69 | W 1.85 | G 2.67 | V 1.99 | D 2.85 | I 1.9 | C 1.94 | P 2.36 | Y 1.77 | N 2.83
L22: R 3.74 | K 3.97 | T 3.45 | Y 2.9 | N 3.92 | H 3.42 | F 3.14 | A 3.8
R14: K 3.31 | H 2.97 | T 3.01 | Q 3.41 | V 2.06 | Y 1.95 | P 2.86 | G 3 | E 3.37 | I 2.86 | L 1.73
Y19: G 3.86 | F 2.31 | D 4.59 | K 3.99 | H 3.71 | V 3.38 | R 4.13 | L 3.12 | N 4.22
L23: M 3.16 | P 3.58 | A 3.73 | I 2.76 | W 2.04 | Q 3.94 | T 3.59 | K 3.85 | R 3.75 | H 3.6 | S 4 | G 3.48
Q15: D 3.59 | N 3.35 | F 2.09 | M 2.25 | R 3.41 | W 2.37 | T 2.91 | P 2.78
I10: Y 3.33 | Q 4.26 | T 4.06 | V 3.32 | K 3.48 | N 3.75 | F 3.41 | D 4.12 | L 3.16 | M 3.62
I8: H 3.99 | V 3.62 | M 4.11 | N 4.1 | K 4.02
F7: V 3.59 | H 3.96 | W 3.03 | A 4.21 | M 3.33 | C 3.87 | E 4.46 | K 4.2 | G 4.18
D6: E 2.97 | T 2.34 | G 2.82 | Q 2.76 | Y 1.9 | R 3.14 | W 2.31
L17: S 3.41 | H 3.59 | K 3.61 | N 3.54 | A 3.11 | E 3.37 | P 2.74
S1: F 2.29 | A 2.82 | E 3.41 | C 3.07 | K 3.23 | T 3.38 | Q 3.44 | L 2.84
